# Data: the DeepSol protein solubility set
# Assay: soluble on expression in E. coli; label from the status in PepcDB or PDB records
row,Sequence,soluble on expression in E. coli
1,METCFANLDEQTKEKAKSILEQKKSGKLTHEQAKEELTKLGVKLPEKEKHEDIFAGLDEATKTKAKAILDNEKKQLEALNVDLPHHKFFMKKEDK,not soluble
2,MGSDKIHHHHHHMTSADPPTLPETSVDVPPTSAEGLLKLITNEYDGLPRQLKRIASYMSQQSDRIMVDRISDIARECEVHPSAIVRFSQRFGFSGFSEMQTLFREAYTHKTTPVQNYQQRIRSMIVNKSQKASAGDLARECVNATLSGLERLSADLDDEEFEKAVDLVVNADNIYVVGVRRSFAVADYLVYNLQHTNKRIHLISGLGGSYREQMRSVRANDLVIAISFTPYGKETQHCLRIAQHHQAKTLIITDSNLSPLAKRANSVLLVNEGSSFAFRSLSATLCLCQALFIAVAYRLELKVDEIHEQVGFDD,not soluble
3,GMSESPTAGRASLAPLREFITGLSALLDEQPGEARILREGGALLARLVARDDWLPDAFAQPHPEYYQQMLLHCDSAERFSIVSFVWGPGQRTPIHDHTVWGLIGMLRGAEYSQPFVLDGSGRPVLHGEPTRLEPGHVEAVSPTVGDIHRVHNAYDDRVSISIHVYGANIGGVRRSVYTEAGERKPFISGYSNPYLPNPWDRSKDSAAS,soluble
4,MASQPTNAVSAEQLMLSKMQAMQAQVQPPEFIVSANPLDQQALNAPLSFSQAMTNVLDTVNQHQSAASQKMTAVETGQSDDLVGAMVASQKASLSFNALMQVRNKVVASFEDIMKMPV,not soluble
5,MSLAKLNVEVFADGADIEQMKAAYKNKEVDGFTTNPSLMAKAGVTDYKSFAEEAVKEIPDASISFEVFADDLETMEKEAEILKQYGDNVFVKIPVVNTKGESTIPLIKKLSADNVRLNVTAVYTIEQVKEITEAVTEGVPTYISVFAGRIADTGVDPLPLMKESVDVAHSKEGVKLLWASCRELFNVIQADEIGADIITCPADVVKKVNTNLGRDINELSVDTVKGFAKDIQSSGLSEGHHHHHH,soluble
6,MWRNSEERENRTSGRSQGSYQEIIGRTWIFRGAHRGRVNKKNIVWHELIGLKVRVVNSTHPGYVGIEGYVIDETRNMLVIAGENKVWKVPKDVCIFEFETWDGTKIKISGEKLVGRPEMRLKKRWRK,soluble
7,MSLRSPLEPGAPDALLTVIVIVEHLDHKEEVIVQGREIVPSMDGHFDTIQELNSRFTESAPREKIEIGNRERPFKLHVVNVGDSRAMLVTGESYAALTRDHVPDDPGEWRRIEETGDQVVYSDGCARIRGLAMSRSFGDFVAKEVRTPSPITAKPDIRRFYATWNDVLLLYSDGLHVDGEDWRTNFGMAKQCISSVPKISDVAVCLLQQAYGGGSSDNITVLATKFRKFRRQTSAKLRIFGGLAKSFSEEGHHHHHH,not soluble
8,MSLTNNVIHLIPEIERILRIKYDDKQKELFYKINENNILVLTGFAGTGKSSVLNGLLNLFDKKNITYKLMSPTAKAAKRMEECTGKKASTIHRALGLAEGKFLVNEKNPFAEDVIIIDETSMVDIYLFLAVLKGIKNTTKLLCLGDYGQLESISAGNVLFDMIQGGIPCVKLEKIFRQKEDSSLLNVITNIRNGDNPLKNTHKTYLELGRDCKFWLGKKEQTLSRVLLCYKECLKHFSREDIMVLCPMKKGNSGVNKLNQELQKIANSQNTEELKLKDCAYKKEDLVMHIKNDYNANIFSEDCKDTIAKGIFNGDAGKIEKIDLENQKLYVSYDSGIVEYDNSNLNELMLSYALTIHKVQGSQSKVVIVALDMSHYKMLKRSLLYTAASRCVELLIFICDPKAFSIALNNNQVTHKNTFLGELLKISEGHHHHHH,not soluble
9,MKPSWDIFCSVVDNYGDAGVTWRLARQLVAEHDVQVRLWIDDLAAFVRLCPDADPCASQQLREGVSVCRWPADWVSSTVPDVVIEAFACRLPTSYTESMLQRSPRPLWLNLEYLSAEDWVSGCHGLPSPQMNGLKKFFFFPGFADTTGGLLRERNLIGQRQAFQQDKALQQAFLQELNVEPLAGARLISVFAYETPRLDSWLDALASDSRPTHLLVPEGRILADVQRWLGSEGQLHAGTVQASGALTVQVLPFIRQERYDQLLWSCDFNVVRGEDSFVRAQWAGRPMLWHIYQQEEDAHLPKLDAFLALYL,not soluble
10,MGSDKIHHHHHHMNQIINDNYREFLKKLRERHLKKRKVKDKNKPIAVWMQDDIYRDFSIGKSLTIILRTEGCYYAKEGGCLMCSYLMDSSPEKITAENIINQFNYAIEKYKEKIKDLKDFSVKIFTSGSFLDDREVPKEARNYIFKKLSEFDNLKEVAIESRPEFIDEDKLNEIRKYLDVNVEIGVGIESFNEEIREKAINKGITNEQIIRAIELAKNYNIGIKAYLLIKPLFITEKEAIYDSISSANKCIELGCSRISFCPATVHKGSVMEFFFNKNQYRPPFLWSIIEILKEVKKSNPKALIMCDTSGVGSERGAHNLYNCKCNKLIKERLERFTLTQDINVLNVECECKNIWNAYIEVENKNIVPLGDERKLLL,not soluble
11,MSLQDIYGTLANLNTKLKQKLSHPYLAKHISAPKIDEDKLLLFHALFEEADIKNNDRENYIVTAMLVQSALDTHDEVTTARVIKRDENKNRQLTVLAGDYFSGLYYSLLSEMKDIYMIRTLATAIKEINEHKIRLYDRSFKDENDFFESVGIVESALFHRVAEHFNLPRWKKLSSDFFVFKRLMNGNDAFLDVIGSFIQLGKTKEEILEDCFKKAKNSIESLLPLNSPIQNILINRLKTISQDQTYHQKVEEGEGHHHHHH,soluble
12,MAHHHHHHMNTLGSSGSAGAEAPLVGGPDALTLQTINEQQLIILRQKELVSTLKECVEELGAQLRRAGVKPLEAAQKEDGCKGTLSYVSEMQLRRRVRTLEDENKKLSDLVDELRAEVSAISAQLCAQQLHTQSEKDVWKAKVSSAEAKSVATAHLLEATGKRNQQLVHHLETLRREGEVSAYECTQWRSLATTAVSHLDHANQRYARAQINSIEEDVHRYAVNRLRLVRVAASASLSLDSGTPEETRKIWSRSAQLPKLHPAPQVFQQQQQEPVCSPLHVSYKRPLSQLLPCQPPQPTTSYSLPPPTAEHVNAETHLSPSHCAALAQT,not soluble
13,MATPETRRRPNILVTGSPGTGKSTLGQQVAEKLGFVFIEVSKEVRENNLQGDFDEQYNCHVLDEDKLLDHISDRLDSDEGGIVVDYHGCDLFPERWFDVVVVLRCPTEKLYDRLQSRGYSEFKIKENVECEIFGTLLEEARESYSEDIVHELQSETTEQMEENLERICELAGEFKNEHTMEQ,not soluble
14,MGSDKIHHHHHHMSNKPFYYQDPFPLSKDDTEYRLLSSDFVSVAQFEGQDILKVEPAALTLLAQQAFHDASFMLRPAHQQQVADILHDPEASENDKYVALQFLRNSEISAKGILPTCQDTGTAIIVGKKGQNVWTGGNDAEALSQGVYNTFIEDNLRYSQNAALDMYQEVNTGTNLPAQIDLYSTEGEDYKFLFVTKGGGSANKTYLYQETKALLTPGKLKSFLIEKMRSLGTAACPPYHIAFAIGGTSAETTLKTVKLASTKYYDELPTEGNEHGQAFRDVALEQEILEAARDLGLGAQFGGKYFAHDVRIIRLPRHGASCPVGMGVSCSADRNIKGKINRKGVWLEQLEQNPGKYIPEHLRETGEGDAVKIDLNRPMTEILKTLSQYPVSTRLSLTGTIIVGRDIAHAKLKERLDNGEGLPQYIKDHPIYYAGPAKTPEGYPSGSLGPTTAGRMDSYVDLLQANGGSMVMLAKGNRSQQVTDACHKHGGFYLGSIGGPAAILAQNSIKSLTCVEYPELGMEAIWKIEVEDFPAFILVDDKGNDFFQVIQSAKCVKCG,not soluble
15,HAAGFRRGDLVHNTLSYHFSPGGFIMDGGARACGCAVFPAGVGNTEAQIEAIKQLQPTGYTGTPSYLLTLLQKYQEQYGELPSFTKALVSGEAVTADMQQAFTDKGIAVFQAYASAELGLIAYQVAGEQGLVIGED,not soluble
16,MLQEIPTTTPSLREARPCVLETERLTLRKPVLADVQAIASLANDRRVVEMTRRMPFPYTRDDAARFVTALPKSSDSVFLIEAEDLEPIGLVGVDWSDRDAPELGYWLGVQHWGNGYATEAARAVIDFTFEVHGAKQMISGARVINPASRNVLEKCGFQWTGVELHRFESIGSSTPVDCFRLTRGVWSSLKKWGTTKRRC,not soluble
17,MGSDKIHHHHHHQISGDTVKIGFITDMSGLYADIDGPGGVEAIKLAISDMKGTVAGKKIELVYADHQNKADVAASKAREWFDTQGVDMLIGGTNSGTALAMTKVAAEKKKPFIAIGAGTSRISNEDCTPYSIHYAYDTVALANGTGSAVTKAGGKSWYFLTADYAFGQSLQNDTSNVVTKSGGQVLGSVKHPLSASDFSSFLLQAQSSKAQILGLANAGGDTINSIKAANEFGITKTMKLAGLLMFINDIHSLGLNATQGMYMTDSWYWNQSPEARAWSRRFFEKMKRMPSSIQAADYSAAMHFLKAVEAAKTDDGDKVMAQMKAMPINDFYAKGSIRKEDGRGIHDMFLLQVKSQQESTEPWDYFKVVEKIPGEQAFTKLADSKCPLVKK,not soluble
18,SLRSLLTRRTIAIEGCCHGELDAIYSSLARLEEMHKMKVDLLICCGDFQFLACPPKYRDLRDFPAYFRGEKEAPCLTVFVGGNHEAPTVLRELYYGGWVAPKIFYLGHAGVVNVGGVRIAGLSGIFKSQDYRKGYFERPPYTEDTMRSAYHVREFEIAKLNRELTGRVDIVVTHDWPEGIYDFGDKTELIRQKPFLEKDIQAHELGNPHSMELLKKLKPAFWFAAHLHTRFAAVYVHPGPEGKATRFLALDKVLPRREFLQILEVEPLLPAGYVQQLSPGISRRSPTLCYDEEWLAILRANQQVLPVSRFPQKSCLVTKATADDLATVKKNLASLGLR,soluble
19,MDELTAFNQCLAWLTHTTALPEHLDGLVLCGNSLPATATAAGQLAQDYQLPLLIIAGGVGHATKYLRQNLNLPKSQASEAELMATLVRKTGYQGSIRLDKTSTNTGSNATHARALAPTDWRHVLLVQDPLLARRTTLTFSANWSNANFIRYAPATLQLNRLQPMQFTPNTIVAGWQPAYFTELLLGEFQRLVDTPTGYGPRGQGFIAHVDIPEEVLAAARYLQSQSLHRQRLEHHHHHH,soluble
20,MKLPLFPLPICLLPEGYTQLRIFEPRYKRLVAESLKSGDGFGLCMTSEEVNTLYPIGTLVHIIDFETLSDGMLGVSIEGKQRFILGDISVESDGLKRAQINLIDNWPAAPIHENEHYLSDMLQNILKEYPKHLQQYQAAQFDDIAWVCQRWLEILPIRSAEKYTCINALDHQLTLDLLRTVIKLEHHHHHH,soluble
21,MNTNNALMQRRHNAVPRGVGQIHPIFAERAENCRVWDVEGREYLDFAGGIAVLNTGHLHPGIVSAVEAQLKKLSHTCFQVLAYEPYLALCERMNQKVPGDFAKKTLLVTTGSEAVENAVKIARAATKRSGAIAFSGAYHGRTHYTLSLTGKVHPYSAGMGLMPGHVYRALYPCPLHNISDDDAIASIERIFKNDAAPEDIAAIIIEPVQGEGGFYAASPAFMQRLRALCDQHGIMLIADEVQSGAGRTGTLFAMEQMGVAADITTFAKSIAGGFPLAGVTGRADVMDAIAPGGLGGTYAGNPIACAAALAVLDIFEQENLLQKANTLGKTLRDGLMEIAETHREIGDVRGLGAMIAIELFENGDPGKPNAALTADIVTRAREKGLILLSCGPYYNILRILVPLTIEASQIRQGLEIIAQCFDEAKQA,not soluble
22,GPTTPVPVSGSLEVKVNDWGSGAEYDVTLNLDGQYDWTVKVKLAPGATVGSFWSANKQEGNGYVIFTPVSWNKGPTATFGFIVNGPQGDKVEEITLEINGQVI,soluble
23,MADLFAGKPLINQEGKELDGGDALRGKKVVALYFSAMWCGSCRQFTPKLKRFYEALKAAGKEIEVVLVSRDREAEDLLEYLGHGGDWVAIPFGDERIQEYLKKYEVPTIPAFKLINNAGELLHDARADVTERGKDDAVALFDEWVEKFPAN,not soluble
